Measurements from the supplement of paper PMC9112550, “Optimization of the antimicrobial peptide Bac7 by deep mutational scanning” (BMC Biology, 2022).

System: Escherichia coli TOP10
Experiment: shrunken log2 fold change of peptide-encoding DNA abundance (4.5 h post-induction vs induction); higher = less antimicrobial activity (less host growth inhibition)
Settings: time post-induction: 4.5 h; library: site-saturation at positions 5, 18, 19, 20
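Note: peptides expressed intracellularly from a pBAD plasmid library in pooled LB shake-flask culture, induced with 0.3% L-arabinose, DNA abundance read by NGS, three biological replicates, DESeq2 with apeglm shrinkage.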

RRIRYRPPRLPRPRPRPDTKPRP
shrunken log2 fold change: -0.0212

RRIRHRPPRLPRPRPRPHGWPRP
shrunken log2 fold change: 0.0177

RRIRLRPPRLPRPRPRPSCSPRP
shrunken log2 fold change: -0.527

RRIRTRPPRLPRPRPRPLNSPRP
shrunken log2 fold change: -0.347

RRIRMRPPRLPRPRPRPMRMPRP
shrunken log2 fold change: 0.759

RRIRTRPPRLPRPRPRPFYPPRP
shrunken log2 fold change: -0.478

RRIRKRPPRLPRPRPRPMVTPRP
shrunken log2 fold change: 0.231

RRIRERPPRLPRPRPRPNSGPRP
shrunken log2 fold change: -0.463

RRIRVRPPRLPRPRPRPTEIPRP
shrunken log2 fold change: 0.221

RRIRWRPPRLPRPRPRPCVYPRP
shrunken log2 fold change: -0.00208

RRIRRRPPRLPRPRPRPNYIPRP
shrunken log2 fold change: -0.237

RRIRYRPPRLPRPRPRPWGKPRP
shrunken log2 fold change: -0.461

RRIRMRPPRLPRPRPRPPKFPRP
shrunken log2 fold change: 0.166

RRIRYRPPRLPRPRPRPAVRPRP
shrunken log2 fold change: -0.0403

RRIRCRPPRLPRPRPRPQWPPRP
shrunken log2 fold change: 0.0205

RRIRMRPPRLPRPRPRPSESPRP
shrunken log2 fold change: -0.01

RRIRMRPPRLPRPRPRPDLKPRP
shrunken log2 fold change: 0.751

RRIRGRPPRLPRPRPRPHSSPRP
shrunken log2 fold change: -0.144

RRIRTRPPRLPRPRPRPTDTPRP
shrunken log2 fold change: -0.0527

RRIRYRPPRLPRPRPRPFPFPRP
shrunken log2 fold change: -0.271

RRIRRRPPRLPRPRPRPSNTPRP
shrunken log2 fold change: -0.172

RRIRARPPRLPRPRPRPDQTPRP
shrunken log2 fold change: -0.0212

RRIRDRPPRLPRPRPRPDNRPRP
shrunken log2 fold change: 0.147

RRIRIRPPRLPRPRPRPDFWPRP
shrunken log2 fold change: 0.0448

RRIRNRPPRLPRPRPRPMYHPRP
shrunken log2 fold change: -0.248

RRIRMRPPRLPRPRPRPKPMPRP
shrunken log2 fold change: 1.14

RRIRDRPPRLPRPRPRPGTQPRP
shrunken log2 fold change: 0.00934

RRIRLRPPRLPRPRPRPFMQPRP
shrunken log2 fold change: 0.0179

RRIRWRPPRLPRPRPRPWQGPRP
shrunken log2 fold change: -0.11

RRIRRRPPRLPRPRPRPPQIPRP
shrunken log2 fold change: 0.908

RRIRYRPPRLPRPRPRPQQMPRP
shrunken log2 fold change: -0.232

RRIRDRPPRLPRPRPRPPGIPRP
shrunken log2 fold change: 0.233

RRIRLRPPRLPRPRPRPPLEPRP
shrunken log2 fold change: 0.752

RRIRMRPPRLPRPRPRPDETPRP
shrunken log2 fold change: 0.103

RRIRMRPPRLPRPRPRPEAVPRP
shrunken log2 fold change: 3.72

RRIRYRPPRLPRPRPRPQWWPRP
shrunken log2 fold change: 0.0898

RRIRGRPPRLPRPRPRPMYYPRP
shrunken log2 fold change: 0.197

RRIRLRPPRLPRPRPRPQSIPRP
shrunken log2 fold change: -0.0983

RRIRQRPPRLPRPRPRPNRSPRP
shrunken log2 fold change: -0.0178

RRIRDRPPRLPRPRPRPHPMPRP
shrunken log2 fold change: 0.0468

RRIRVRPPRLPRPRPRPVQIPRP
shrunken log2 fold change: -0.0141

RRIRQRPPRLPRPRPRPQHNPRP
shrunken log2 fold change: -0.786

RRIRWRPPRLPRPRPRPICCPRP
shrunken log2 fold change: 0.149

RRIRNRPPRLPRPRPRPSQAPRP
shrunken log2 fold change: 0.0297

RRIRSRPPRLPRPRPRPGVAPRP
shrunken log2 fold change: 0.42

RRIRYRPPRLPRPRPRPSQEPRP
shrunken log2 fold change: -0.748

RRIRCRPPRLPRPRPRPQVPPRP
shrunken log2 fold change: -0.106

RRIRDRPPRLPRPRPRPIFSPRP
shrunken log2 fold change: -0.182

RRIRIRPPRLPRPRPRPGTWPRP
shrunken log2 fold change: -0.475

RRIRLRPPRLPRPRPRPWDTPRP
shrunken log2 fold change: 0.0949

RRIRNRPPRLPRPRPRPLVYPRP
shrunken log2 fold change: -0.943

RRIRPRPPRLPRPRPRPIEDPRP
shrunken log2 fold change: -0.0617

RRIRCRPPRLPRPRPRPMMGPRP
shrunken log2 fold change: 0.0355

RRIRNRPPRLPRPRPRPPMQPRP
shrunken log2 fold change: 0.0237

RRIRIRPPRLPRPRPRPYGIPRP
shrunken log2 fold change: -0.329

RRIRDRPPRLPRPRPRPRAWPRP
shrunken log2 fold change: 0.0227

RRIRNRPPRLPRPRPRPKCWPRP
shrunken log2 fold change: 0.173

RRIRCRPPRLPRPRPRPYFQPRP
shrunken log2 fold change: -0.846

RRIRFRPPRLPRPRPRPFNWPRP
shrunken log2 fold change: -0.975

RRIRARPPRLPRPRPRPTWRPRP
shrunken log2 fold change: 0.813

RRIRDRPPRLPRPRPRPFRAPRP
shrunken log2 fold change: -0.0871

RRIRGRPPRLPRPRPRPCVTPRP
shrunken log2 fold change: 1.34

RRIRYRPPRLPRPRPRPDYNPRP
shrunken log2 fold change: -0.475

RRIRGRPPRLPRPRPRPMHDPRP
shrunken log2 fold change: 0.361

RRIRLRPPRLPRPRPRPNDRPRP
shrunken log2 fold change: -0.422

RRIRTRPPRLPRPRPRPHCHPRP
shrunken log2 fold change: -0.0122

RRIRPRPPRLPRPRPRPKHVPRP
shrunken log2 fold change: -0.137

RRIRQRPPRLPRPRPRPLWYPRP
shrunken log2 fold change: -0.367

RRIRERPPRLPRPRPRPDFAPRP
shrunken log2 fold change: 0.159

RRIRNRPPRLPRPRPRPIKKPRP
shrunken log2 fold change: 0.149

RRIRGRPPRLPRPRPRPHKTPRP
shrunken log2 fold change: -0.0617

RRIRDRPPRLPRPRPRPCASPRP
shrunken log2 fold change: -0.0652

RRIRWRPPRLPRPRPRPSYWPRP
shrunken log2 fold change: -0.415

RRIRYRPPRLPRPRPRPHCCPRP
shrunken log2 fold change: -0.0599

RRIRWRPPRLPRPRPRPVMQPRP
shrunken log2 fold change: 0.294

RRIRSRPPRLPRPRPRPEKGPRP
shrunken log2 fold change: 0.0255

RRIRLRPPRLPRPRPRPHAGPRP
shrunken log2 fold change: 0.168

RRIRCRPPRLPRPRPRPMGQPRP
shrunken log2 fold change: 0.00321

RRIRMRPPRLPRPRPRPCEPPRP
shrunken log2 fold change: 0.234

RRIRARPPRLPRPRPRPARGPRP
shrunken log2 fold change: 0.774

RRIRRRPPRLPRPRPRPQTAPRP
shrunken log2 fold change: -0.11

RRIRARPPRLPRPRPRPWSQPRP
shrunken log2 fold change: 0.149

RRIRERPPRLPRPRPRPHGEPRP
shrunken log2 fold change: -0.0812

RRIRFRPPRLPRPRPRPTFIPRP
shrunken log2 fold change: -0.44

RRIRSRPPRLPRPRPRPLPFPRP
shrunken log2 fold change: -0.588

RRIRCRPPRLPRPRPRPRVKPRP
shrunken log2 fold change: 0.196

RRIRFRPPRLPRPRPRPMAWPRP
shrunken log2 fold change: -0.0344

RRIRTRPPRLPRPRPRPLPKPRP
shrunken log2 fold change: -0.0549

RRIRCRPPRLPRPRPRPQFKPRP
shrunken log2 fold change: -0.562

RRIRFRPPRLPRPRPRPHMAPRP
shrunken log2 fold change: -0.429

RRIRGRPPRLPRPRPRPIANPRP
shrunken log2 fold change: 0.42
